Laboratory results reported in patent US20080274112A1, “Nogo Receptor Antagonists” (priority 2003, published 2008).

Assays:
mouse NgR1 = molecular target: T1, mouse NgR1 (Mus musculus, UniProt Q99PI8); experiment: Antibody binding to mouse Nogo receptor-1
T1 sequence (Q99PI8 27-447): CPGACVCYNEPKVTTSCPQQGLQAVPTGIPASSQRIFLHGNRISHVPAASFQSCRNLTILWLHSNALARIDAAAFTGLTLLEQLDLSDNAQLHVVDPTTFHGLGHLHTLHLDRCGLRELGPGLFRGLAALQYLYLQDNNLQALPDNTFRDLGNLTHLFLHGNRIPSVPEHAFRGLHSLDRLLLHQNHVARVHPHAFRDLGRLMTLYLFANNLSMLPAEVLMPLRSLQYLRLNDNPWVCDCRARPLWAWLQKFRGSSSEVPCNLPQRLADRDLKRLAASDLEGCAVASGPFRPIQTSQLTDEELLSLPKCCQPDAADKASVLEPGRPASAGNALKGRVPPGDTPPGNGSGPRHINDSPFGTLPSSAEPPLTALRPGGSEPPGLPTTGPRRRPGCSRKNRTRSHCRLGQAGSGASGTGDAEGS

human Nogo receptor-1 = molecular target: T2, human Nogo receptor-1 (Homo sapiens, UniProt Q9BZR6); experiment: Immunohistochemical staining of fixed and live cells expressing human Nogo receptor-1; format: cell-based
T2 construct: expressed in transfected cells; host or cells: COS-7 or 293 cells
T2 sequence (Q9BZR6 27-447): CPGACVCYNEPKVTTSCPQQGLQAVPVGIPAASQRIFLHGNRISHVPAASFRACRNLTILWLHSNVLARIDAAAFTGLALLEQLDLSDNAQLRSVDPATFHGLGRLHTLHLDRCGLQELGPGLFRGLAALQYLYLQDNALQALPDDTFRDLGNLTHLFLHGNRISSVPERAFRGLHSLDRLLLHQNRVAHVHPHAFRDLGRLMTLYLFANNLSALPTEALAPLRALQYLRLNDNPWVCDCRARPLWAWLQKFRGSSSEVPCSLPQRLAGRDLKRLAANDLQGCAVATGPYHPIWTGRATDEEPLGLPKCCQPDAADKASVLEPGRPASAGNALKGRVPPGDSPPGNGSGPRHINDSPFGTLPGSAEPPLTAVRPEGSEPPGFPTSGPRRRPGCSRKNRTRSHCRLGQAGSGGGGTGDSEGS
Procedure: To further characterize the binding properties of anti-Nogo receptor-1 mAbs produced as described in Example 1, we compared binding to both fixed and live COS-7 or 293 cells expressing rat or human Nogo receptor-1.
Nogo receptor-1 transfected and non-transfected cells were plated in 8-well Lab-Tek® culture slides, fixed with 4% paraformaldehyde for 15 minutes, blocked with 10% normal goat serum, 0.1% Triton X-100 in PBS for 1 hour. Mab 7E11 was added at 15 μg/ml and 1.5 μg/ml in blocking solution and incubated for 2 hours at room temperature; Alexa®-conjugated secondary antibody anti-mouse (Molecular Probes) was incubated at a 1:300 dilution in blocking solution for 1 hour; DAPI was added at 5 μg/ml to the secondary antibody to label all nuclei.
Transfected and non-transfected cells were plated in 8 well Lab-Tek® culture slides, blocked with FACS buffer (containing 4% donor horse serum) for 30 minutes at 4° C., incubated with 7E11 at 15 μg/ml and 1.5 μg/ml in FACS buffer for 1 hour at 4° C., rinsed and incubated with secondary antibody anti-mouse-Alexa® (1:300 in FACS buffer) for 30 minutes at 4° C.

OM-gp + sNogoR344-Fc = molecular target: T3, OM-gp + sNogoR344-Fc (Rattus norvegicus, UniProt Q99M75, A303T/C287S/C43R/E284G/T53A); experiment: mAb/Fab inhibition of OM-gp binding to sNogoR344-Fc (ELISA)
T3 construct: amino acid residues 26-344 of rat Nogo receptor-1; made in house
T3 sequence (Q99M75 26-344 C43R/T53A/E284G/C287S/A303T): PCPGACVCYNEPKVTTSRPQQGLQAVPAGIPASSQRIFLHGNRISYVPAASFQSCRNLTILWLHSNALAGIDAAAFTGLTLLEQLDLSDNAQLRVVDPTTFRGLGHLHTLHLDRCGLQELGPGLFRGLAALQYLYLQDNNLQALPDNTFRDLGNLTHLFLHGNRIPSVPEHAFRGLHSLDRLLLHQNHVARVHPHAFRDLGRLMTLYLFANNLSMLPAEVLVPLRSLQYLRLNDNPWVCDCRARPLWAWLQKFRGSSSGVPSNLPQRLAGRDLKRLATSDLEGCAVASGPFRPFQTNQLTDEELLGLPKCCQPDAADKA
Procedure: 0.5 μg of a soluble Nogo receptor-1 fusion protein comprising amino acid residues 26-344 of rat Nogo receptor-1 and the hinge and Fc region of the rat IgG1 molecule (sNogoR344-Fc) produced as described below was immobilized on 250 μg of protein-A- or wheatgerm agglutinin-conjugated SPA beads (Amersham Pharmacia Biotech) for 2 hours at 25° C. SPA beads coupled with Fc-sNogoR-1, anti-Nogo receptor-1 mAb and 1 μl ^125I-Nogo66 (Amersham, 2000 Ci/mmol, 1 nM) in 50 μl of the HEPES-buffered incubation medium (10 mM HEPES, pH 7.4, 0.1% bovine serum albumin, 0.1% ovalbumin, 2 mM MgCl2, 2 mM CaCl2 and protease inhibitors) was added to each sample well. After 16 hours, radioactivity was measured in quadruplicate samples using a TopCount® (Packard). IC50 values were calculated from a curve-fit analysis (FIG. 3) (PRISM, GraphPad Software, NJ). In some experiments, we also used AP-ligand conjugates (e.g. AP-Nogo66) and detected binding by monitoring alkaline phosphatase activity. We also assayed the ability of the mAbs to block binding of the ligands MAG-Fc and AP-OM-gp to Nogo receptor-1.
The calculated IC50 for Nogo66 for 7E11 and 1H2 were 400 nM and 60 nM, respectively. The data from ELISAs monitoring mAb-mediated inhibition of binding of the three ligands to Nogo receptor-1 are summarized in Table 6.
We also performed ELISA binding assays using the Fab-phage 14D5.

[1] = molecular target: T4, rat NgR1 (sNgR310) fragments (Rattus norvegicus, UniProt Q99M75, A303T/C287S/E284G); experiment: Western blot of acid/CNBr fragments of sNgR310 probed with 7E11; format: binding
T4 construct: made in house
T4 sequence (Q99M75 241-310 E284G/C287S/A303T): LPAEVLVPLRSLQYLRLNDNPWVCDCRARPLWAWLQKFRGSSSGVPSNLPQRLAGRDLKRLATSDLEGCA
Procedure: A recombinant fragment of the rat NgR1 that contains all 8 LRR domains and the N- and C-terminal caps (sNgR310) was treated with either acid or cyanogen bromide (CNBr) and separated the fragments by gel electrophoresis. Untreated sNgR310 migrates with an apparent molecular weight of 42 kDa. Acid treatment of sNgR310 produced two major cleavage products of 15 kDa (aa 27-aa 122) and 30 kDa (aa 123-aa 310). CNBr treatment generated three fragments, a 33/35 kDa doublet (aa 27-aa 229), which may represent fragments with heterogeneous glycosylation, a 10 kDa product (aa 241-aa 310), and an 11-amino-acid fragment (aa 230-aa 240), which is not retained on the gel. […] Both the 15 kDa acid fragment and the 35 kDa CNBr fragment contained the sequence LDLSDNAQLRVVDPTT (SEQ ID NO: 1), consistent with 7E11 binding to a single epitope on NgR1.

B1: 7E11: murine monoclonal anti-Nogo receptor-1 antibody, IgG1 kappa, ATCC PTA-4587; immunogen rat Nogo receptor-1 residues 110-125 (antibody, V domains shown)
VH: VQLQESGAELVMPGASVKMSCKASGYTFTDYWMHWVKQRPGQGLEWIGAIDPSDSYSSYNQNFKGKATLTVDGSSSTAYMQLSSLTSEDSAVYYCARRITEAGAWFAYWGQGTTVT
VL: DVVMTQTPLSLPVSLGDQASISCRSSQSLVHSNGNTYLHWYLQKPGQSPKLLIYKVSNRFSGVPDRFSGSGSGTDFTLKISRVDAEDLGVYFCSQSTHVPFTFGGGTKLEIKRADAAPTVSISHH
Question: What does the source list for B1?
Answer: binding to mouse NgR1 (mouse NgR1): poorly; binding to cells expressing human Nogo receptor-1 (human Nogo receptor-1): bound both fixed and live cells; inhibition of binding of OM-gp to sNogoR344-Fc (OM-gp + sNogoR344-Fc): inhibited binding; EC50 (OM-gp + sNogoR344-Fc; curve-fit analysis): 150 nM; 7E11 binding to 10 kDa CNBr fragment (aa 241-aa 310) [1]: did not bind
